The supplement of paper PMC10201428
± gives the standard deviation of the averaged measurements.

Assays:
[1] = system: VchCAST RNA-guided transposition machinery (E. coli BL21(DE3) host, lacZ target); assay: relative integration efficiency (T-RL orientation) vs wild-type transposon end (log2 (normalized fold change)); transposon end mutated: right end (5 bp flank + 75 bp right end); higher = more efficient transposition
Outline: (§1)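 Pools of 1549 left-end or 1849 right-end barcoded transposon variants were cloned into a pUC57 mini-transposon donor and co-transformed into E. coli BL21(DE3) with a T7-driven effector plasmid carrying a CRISPR array, tniQ-cas8-cas7-cas6 and tnsA-tnsB-tnsC. Plating used 0.1 mM IPTG at 37°C for 18 h, and input plasmids and genomic integration junctions were PCR-amplified for Illumina sequencing, with two biological output replicates and four reference barcodes. Relative integration efficiency is the log-transformed fold change of output over input barcode abundance, normalised to the reference barcodes.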

[2] = system: VchCAST RNA-guided transposition machinery (E. coli BL21(DE3) host, lacZ target); assay: relative integration efficiency (T-LR orientation) vs wild-type transposon end (log2 (normalized fold change)); transposon end mutated: right end (5 bp flank + 75 bp right end); higher = more efficient transposition
Outline: as §1

| Sequence | relative integration efficiency (log2) [1] | relative integration efficiency (log2) [2] |
| --- | --- | --- |
| ACATTTGTGGATACAACCATAAAATGATAATTACACCCATAAATTTATTATTATCACACCCAATTTAACTATAACGCTCTGATCATAGTCAGACCAACATTGCTACGACCCGTATTCGCACCGACAC | -2.14 ± 0.55 | 1.47 ± 0.11 |
| ACATTTGTGGATACAACCATAAAATGATAATTACCACCCATAAATTGATAATTATCACACCCATTTAACTATAACGCTCTGATCATAGTCAGACCAACATTGCTACGACCCGTATTCGCACCGACAC | -1.11 ± 0.24 | 1.54 ± 0.083 |
| ACATTTGTGGATACAACCATAAAATGATAATTACCACCCATACATTGATAATTATCACACCCATTTAACTATAACGCTCTGATCATAGTCAGACCAACATTGCTACGACCCGTATTCGCACCGACAC | -2.53 ± 0.19 | -0.296 ± 0.095 |
| ACATTTGTGGATACAACCATAAAATGATAATTACCACCCCTAAATTGATAATTATCACACCCATTTAACTATAACGCTCTGATCATAGTCAGACCAACATTGCTACGACCCGTATTCGCACCGACAC | -2.781 ± 0.006 | -0.51 ± 0.037 |
| ACATTTGTGGATACAACCATAAAATGATAATTACCACCCCTACATTGATAATTATCACACCCATTTAACTATAACGCTCTGATCATAGTCAGACCAACATTGCTACGACCCGTATTCGCACCGACAC | -3.07 ± 0.21 | -0.503 ± 0.055 |
| ACATTTGTGGATACAACCATAAAATGATAATTCACCCATAAATTGATAATTATCACACCCCAATTTAACTATAACGCTCTGATCATAGTCAGACCAACATTGCTACGACCCGTATTCGCACCGACAC | -1.92 ± 0.17 | 1.23 ± 0.028 |
| ACATTTGTGGATACAACCATAAAATGATAATTCACCCATCAATTGATAATTATCACACCCCAATTTAACTATAACGCTCTGATCATAGTCAGACCAACATTGCTACGACCCGTATTCGCACCGACAC | -2.89 ± 0.38 | 0.328 ± 0.26 |
| ACATTTGTGGATACAACCCTAAAATGATAATTACACCCATAAATGGATAATTATCACACCCAATTTAACTATAACGCTCTGATCATAGTCAGACCAACATTGCTACGACCCGTATTCGCACCGACAC | -3.64 ± 0.39 | -0.593 ± 0.47 |
| ACATTTGTGGATACAACCCTAAAATGATAATTACACCCATAAATGGATAATTATCACCCCCAATTTAACTATAACGCTCTGATCATAGTCAGACCAACATTGCTACGACCCGTATTCGCACCGACAC | -3.8 ± 0.4 | -1.16 ± 0.27 |
| ACATTTGTGGATACAACCCTAAAATGATAATTACACCCATAAATGGATCATTATCACACCCAATTTAACTATAACGCTCTGATCATAGTCAGACCAACATTGCTACGACCCGTATTCGCACCGACAC | -3.94 ± 0.38 | -1.6 ± 0.071 |
| ACATTTGTGGATACAACCCTAAAATGATAATTACACCCATAAATGGATCATTATCACCCCCAATTTAACTATAACGCTCTGATCATAGTCAGACCAACATTGCTACGACCCGTATTCGCACCGACAC | -4.36 ± 0.35 | -1.88 ± 0.26 |
| ACATTTGTGGATACAACCCTAAAATGATAATTACACCCATAAATTCATAATTATCACACCCAATTTAACTATAACGCTCTGATCATAGTCAGACCAACATTGCTACGACCCGTATTCGCACCGACAC | -5.07 ± 0.49 | -2.97 ± 0.11 |
| ACATTTGTGGATACAACCCTAAAATGATAATTACACCCATAAATTCATAATTATCACCCCCAATTTAACTATAACGCTCTGATCATAGTCAGACCAACATTGCTACGACCCGTATTCGCACCGACAC | -4.88 ± 0.16 | -2.64 ± 0.13 |
| ACATTTGTGGATACAACCCTAAAATGATAATTACACCCATAAATTCATCATTATCACACCCAATTTAACTATAACGCTCTGATCATAGTCAGACCAACATTGCTACGACCCGTATTCGCACCGACAC | -4.92 ± 0.15 | -1.67 ± 0.21 |
| ACATTTGTGGATACAACCCTAAAATGATAATTACACCCATAAATTCATCATTATCACCCCCAATTTAACTATAACGCTCTGATCATAGTCAGACCAACATTGCTACGACCCGTATTCGCACCGACAC | -4.53 ± 0.011 | -1.47 ± 0.4 |
| ACATTTGTGGATACAACCCTAAAATGATAATTACACCCATAAATTGATAATTATCACACCCAATTTAACTATAACGCTCTGATCATAGTCAGACCAACATTGCTACGACCCGTATTCGCACCGACAC | -1.73 ± 0.26 | 1.32 ± 0.36 |
| ACATTTGTGGATACAACCCTAAAATGATAATTACACCCATAAATTGATAATTATCACCCCCAATTTAACTATAACGCTCTGATCATAGTCAGACCAACATTGCTACGACCCGTATTCGCACCGACAC | -2.2 ± 0.29 | 0.686 ± 0.29 |
| ACATTTGTGGATACAACCCTAAAATGATAATTACACCCATAAATTGATCATTATCACACCCAATTTAACTATAACGCTCTGATCATAGTCAGACCAACATTGCTACGACCCGTATTCGCACCGACAC | -3.19 ± 0.51 | 0.117 ± 0.091 |

| Sequence | relative integration efficiency (log2) [1] | relative integration efficiency (log2) [2] |
| --- | --- | --- |
| ACATTTGTGGATACAACCCTAAAATGATAATTACACCCATAAATTGATCATTATCACCCCCAATTTAACTATAACGCTCTGATCATAGTCAGACCAACATTGCTACGACCCGTATTCGCACCGACAC | -2.87 ± 0.27 | 0.316 ± 0.5 |
| ACATTTGTGGATCCAACCATAAAATGATAATTACACCCATAAATGGATAATTATCACACCCAATTTAACTATAACGCTCTGATCATAGTCAGACCAACATTGCTACGACCCGTATTCGCACCGACAC | -1.38 ± 0.18 | 1.18 ± 0.021 |
| ACATTTGTGGATCCAACCATAAAATGATAATTACACCCATAAATGGATCATTATCACACCCAATTTAACTATAACGCTCTGATCATAGTCAGACCAACATTGCTACGACCCGTATTCGCACCGACAC | -1.79 ± 0.39 | 0.845 ± 0.06 |
| ACATTTGTGGATCCAACCATAAAATGATAATTACACCCATAAATTCATAATTATCACACCCAATTTAACTATAACGCTCTGATCATAGTCAGACCAACATTGCTACGACCCGTATTCGCACCGACAC | -2.04 ± 0.41 | 1.043 ± 0.0096 |
| ACATTTGTGGATCCAACCATAAAATGATAATTACACCCATAAATTCATCATTATCACACCCAATTTAACTATAACGCTCTGATCATAGTCAGACCAACATTGCTACGACCCGTATTCGCACCGACAC | -2.28 ± 0.22 | 1.15 ± 0.38 |
| ACATTTGTGGATCCAACCATAAAATGATAATTACACCCATAAATTGATAATTATCACACCCAATTTAACTATAACGCTCTGATCATAGTCAGACCAACATTGCTACGACCCGTATTCGCACCGACAC | -0.789 ± 0.2 | 2.06 ± 0.17 |
| ACATTTGTGGATCCAACCATAAAATGATAATTACACCCATAAATTGATCATTATCACACCCAATTTAACTATAACGCTCTGATCATAGTCAGACCAACATTGCTACGACCCGTATTCGCACCGACAC | -1.6 ± 0.2 | 1.72 ± 0.11 |
| ACATTTGTGTATACAACCATAAAATGATAATTACACCCATAAATTGATAATTATCACACCCATAAATTGATATTGCCTCTGATCATAGTCAGACCAACATTGCTACGACCCGTATTCGCACCGACAC | 0.00813 ± 0.2 | -0.811 ± 0.61 |
| ACATTTGTGTCGACAACCATAAAATGATAATTACACCCATAAATTGATAATTATCACACCCATAAATTGATATTGCCTCTGATCATAGTCAGACCAACATTGCTACGACCCGTATTCGCACCGACAC | -0.916 ± 0.027 | -2.89 ± 0.57 |
| ACATTTGTTAAAAAAACCATACGTTGATTTTACGAAACCATACGCTGAAATAATCACACCCATAAATTGATATTGCCTCTGATCATAGTCAGACCAACATTGCTACGACCCGTATTCGCACCGACAC | -5.94 ± 0.086 | -5.9 ± 0.37 |
| ACATTTGTTCATACAACCATAAAACGATAATTACACCCATAAATGGATAATTATCACACCCAATTTAACTATAACGCTCTGATCATAGTCAGACCAACATTGCTACGACCCGTATTCGCACCGACAC | -2.14 ± 0.3 | -0.438 ± 0.41 |
| ACATTTGTTCATACAACCATAAAACGATAATTACACCCATAAATGGATCATTATCACACCCAATTTAACTATAACGCTCTGATCATAGTCAGACCAACATTGCTACGACCCGTATTCGCACCGACAC | -2.16 ± 0.3 | -0.511 ± 0.011 |
| ACATTTGTTCATACAACCATAAAACGATAATTACACCCATAAATTCATAATTATCACACCCAATTTAACTATAACGCTCTGATCATAGTCAGACCAACATTGCTACGACCCGTATTCGCACCGACAC | -3 ± 0.52 | -0.844 ± 0.015 |
| ACATTTGTTCATACAACCATAAAACGATAATTACACCCATAAATTCATCATTATCACACCCAATTTAACTATAACGCTCTGATCATAGTCAGACCAACATTGCTACGACCCGTATTCGCACCGACAC | -2.49 ± 0.11 | -0.684 ± 0.17 |
| ACATTTGTTCATACAACCATAAAACGATAATTACACCCATAAATTGATAATTATCACACCCAATTTAACTATAACGCTCTGATCATAGTCAGACCAACATTGCTACGACCCGTATTCGCACCGACAC | -0.611 ± 0.28 | 1.42 ± 0.13 |
| ACATTTGTTCATACAACCATAAAACGATAATTACACCCATAAATTGATCATTATCACACCCAATTTAACTATAACGCTCTGATCATAGTCAGACCAACATTGCTACGACCCGTATTCGCACCGACAC | -2.19 ± 0.3 | -0.162 ± 0.59 |
| ACATTTGTTCATACAACCATAAAATGATAATTACACCCATAAATGGATAATTATCACACCCAATTTAACTATAACGCTCTGATCATAGTCAGACCAACATTGCTACGACCCGTATTCGCACCGACAC | -1.57 ± 0.27 | -0.42 ± 0.41 |
